From the supplement of paper PMC12042874 come the findings set out here.

± gives the uncertainty stated by the source.

The series can be described thus: amyloid nucleation score (Sup35N fusion, yeast selection) (log enrichment); library NNK3; higher = more nucleation; inactive = no reads after selection. In short, it runs like this: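 Output and input plasmid inserts were sequenced by Illumina after psi-negative yeast carrying Sup35N fused to peptides of 20 random codons had been induced 24 hours with 100 μM copper sulfate and grown 7 days at 30°C on medium lacking adenine and uracil. The nucleation score is the DiMSum log enrichment of output over input reads, centred on the mode score of non-aggregating sequences. Sequences with under 100 input reads were excluded.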

Regarding YSCGFDLAAWAFTDVIRRRI, the amyloid nucleation score entry was “inactive”. To GFFELYS belongs “inactive”; to SYMLNSCSWRTK, “inactive”; to YSSFAANSCFLERVEVKSDL, “inactive”.

NVRSNFLVADVVVFVRKIVR came in with an amyloid nucleation score of 2.42 ± 0.072. For ISGEQRYSKCRT, the amyloid nucleation score entry was “inactive”. Regarding LVFYMFAFITFVIYMMLIFY, the amyloid nucleation score came out at 0.163 ± 0.29. To IMQFGDFYIIQRERRSYVLW belongs 2.25 ± 0.087; to ILLGIEAPCVSITYYFKTFL, 1.32 ± 0.13. With SRSLIRINWFRGKKLCYGFE the entry was “inactive”.

Consider GGSVWWY, for which the amyloid nucleation score result is “inactive”. Take YIGCCWYSSCDRVSYRYSVM: the amyloid nucleation score turned out to be 2.78 ± 0.06. For LFYGHVNLASYRVSNRSKTR, the amyloid nucleation score entry is “inactive”. To LCGPSDLAT belongs 0.096 ± 0.66; to HQIQLVATHPTEILHAGTSN, “inactive”; to LNYTEASYSLTGHTISISTV, -0.156 ± 1.5. With TFFFVVGHSNDEVYSCVKTV the figure was 1.12 ± 0.11; with LIVAFSLASLGLKFSQCSWA, -0.363 ± 0.96; with ITVELTCGSGYYGTMTENQV, “inactive”. With VVFYTSGARDRICHMDVHRP the figure was 0.113 ± 0.69; with FMGQFIYLSSRCNSSVDSEV, “inactive”. As for RNFARCRFNPPMTHHSFFNT, the amyloid nucleation score result is “inactive”. With VTVEALILNN the entry was “inactive”; with SDYSLYWFK, “inactive”. With SMFNGNLSRSMWFWRVRVTP the entry was “inactive”. Turning to INLGMP, the amyloid nucleation score was -0.279 ± 0.52.

With TAFTGIRTWHCHCKRSYSLG, the amyloid nucleation score result was “inactive”. On to CVVNLHSRIEARLLQIYRAV, for which the amyloid nucleation score entry is “inactive”.

On to DCLDNK, for which the amyloid nucleation score result was “inactive”.

As for RAMLLGFSCMVWVPWGQFGK, the amyloid nucleation score came out at 0.649 ± 0.22. For SYSSDWVLLGGMFFAKY, the amyloid nucleation score is 0.164 ± 0.56. To IDYAYGNVTNNPQKP belongs “inactive”; to TFEEFESTARLGFHERGDFY, “inactive”.

Substance RGGCQATVGNALNIRFFAQG gave an amyloid nucleation score of 1.72 ± 0.095. For HLYYAP, the amyloid nucleation score entry is “inactive”. With SGLDFAYLDECSREGSVYAG the entry was “inactive”.

With VAQRELWEEAIRCRYEH, the amyloid nucleation score result was “inactive”.

As to IVYWCLVRNLEKLCCSYFTG, the amyloid nucleation score result is “inactive”. Turning to EMLCVDYWTFGYMVLREVTI, the amyloid nucleation score entry was “inactive”. In the case of FEVWRTGLCDRARGTVNRLK, the amyloid nucleation score result is “inactive”. On to ETVGAPRSLYYST, for which the amyloid nucleation score entry is “inactive”. To LINNSEASLIHYIYGRGNVQ belongs -0.664 ± 1.9. YKLRVNSVETNCTEILTLVE: the amyloid nucleation score result is “inactive”. To FCLYTKLNVSIRGISDAYVY belongs “inactive”; to FFISDVGETC, “inactive”; to SSGLFLSISLNDGWSRGVWS, 2.77 ± 0.076.

Take SAVKWC: the amyloid nucleation score result was “inactive”. With LSKFFRWV the entry was “inactive”.

On to VMQQYLYNLCCL, for which the amyloid nucleation score turned out to be 2.83 ± 0.052. As for GGARL, the amyloid nucleation score result is “inactive”.

RRKHHVISQVPERPLSWLAT: the amyloid nucleation score result was “inactive”.

Turning to VIGHMIGMDY, the amyloid nucleation score result was “inactive”. With VEIGCANSRWDLLGVVCCLG the figure was 1.27 ± 0.17. To ANLRSLTR belongs “inactive”; to GFNVTWFEIYGGLEDSWWFC, “inactive”. DSNLVFFGSIFFTVLMWLTK: the amyloid nucleation score result is “inactive”. Consider GLDTAR, for which the amyloid nucleation score result was “inactive”. With VALLTYFWYGPIKGVAS the entry was “inactive”; with SCISKWST, “inactive”; with CVDFR, “inactive”.

For RFKMAYFKNTAYLFNNANSV, the amyloid nucleation score result was “inactive”. For RYLLPQIPLLYKWKLLILHG, the amyloid nucleation score result was “inactive”.

For ETYWQINSTECKFTSFQRLF, the amyloid nucleation score result is “inactive”. To LNCLRMSLLC belongs “inactive”; to ILILS, “inactive”; to GNVSCHFILGQRVHFPSCDF, 0.809 ± 0.29. To FWSSFAMRAYSVIWYTLSTC belongs “inactive”; to LMFDVFLMSTFVFDNL, “inactive”.

Substance RSARQHFPRNRGGNHSSDRV yielded an amyloid nucleation score of 0.204 ± 0.43. With VVKFFVWLDVFYVWGLAGII the entry was “inactive”; with LRWFFVHPQWIRGCGLAMLS, “inactive”. Regarding GFRYALHSLIDR, the amyloid nucleation score result was “inactive”. To IFIQLLPYVFSTVEVSDFVG belongs 0.625 ± 0.38. For YGFAYV, the amyloid nucleation score was -0.336 ± 1.1. With VAPLAILDRKSKSLVGNNMA the entry was “inactive”. With NFLVRTPGRNERG the entry was “inactive”; with QVGSRRNSS, “inactive”.

For IFHMVVLVLAGKFILVISCS, the amyloid nucleation score entry was “inactive”. With LVFRIN, the amyloid nucleation score result is “inactive”. With ILDFDFTSLPNMMRGCRSHL the entry was “inactive”; with WYGVSACYGWHNVAHSSRTR, “inactive”; with VVITYSFRVQHV, “inactive”. Take SDFHCTQKRNMVWEEIA: the amyloid nucleation score entry is “inactive”. Take WMHRAYWLSGVCRVLQVTNL: the amyloid nucleation score entry is “inactive”. Take YLFLVRSQTLRVRYWTRNPP: the amyloid nucleation score result was “inactive”.

FKSSVKGEGYGKMGFQLLPF: the amyloid nucleation score result was “inactive”.

Take CMNIRPMATLTESSS: the amyloid nucleation score entry was “inactive”. With QSTPYYLGFTD the figure was 0.988 ± 0.11.

In the case of ILWMVSMLRYIIEG, the amyloid nucleation score entry is “inactive”. With TCKVVCRFFHIRACMLGVIL the entry was “inactive”; with VLLAIGWVGGIFCGIWAGSH, “inactive”. With SNLRMRKNGVVDDIWPDERL the figure was -0.802 ± 1.3. With SMSWRSHEAMCTGSYFNLCD the entry was “inactive”. For GSSGENFVNYSKVTKSDLLY, the amyloid nucleation score entry was “inactive”. With SLDFSSGDVKNLKCCNVLMK the entry was “inactive”; with ILVAGTAV, “inactive”; with SPKAVSCNTFPIGYRISFFL, “inactive”. With VIILMVIVLYNRVSFETFSV the entry was “inactive”.
